{
  "source": "patent US20240400638A1",
  "about": "“COMBINATION OF RELAXIN AND VASOPRESSIN ANALOGUES FOR TREATMENT OF RENAL DISORDERS OR CONDITIONS” (River 2 Renal Corp., priority 2021, published 2024)",
  "note": "Numbered stars: 1 amine (or outer) side, 2 acyl side, 3 side chain; on linkers, the order of the positions; unused ones are H or OH. Square brackets hold non-standard residues; d marks the D form. Side chains are listed from the residue outwards. * marks the point of attachment. TTDS = 4-[3-[2-[2-(3-aminopropoxy)ethoxy]ethoxy]propylamino]-4-oxo-butanoyl; Trp(5-Cl) = N[C@@H](Cc1c[nH]c2ccc(Cl)cc12)C(=O)O; γGlu = O=C(O)[C@H](CCC(=O)[*:2])N[*:1]; Palmitoyl = CCCCCCCCCCCCCCCC(=O)*; αMeK = C[C@](N)(CCCCN)C(=O)O; AEEA = NCCOCCOCC(=O)O; Aib = CC(C)(N)C(=O)O",
  "data": [
    {"target": "T1, human RXFP1 (human, UniProt Q9HBX9 1-757)", "T1 sequence (looked up)": "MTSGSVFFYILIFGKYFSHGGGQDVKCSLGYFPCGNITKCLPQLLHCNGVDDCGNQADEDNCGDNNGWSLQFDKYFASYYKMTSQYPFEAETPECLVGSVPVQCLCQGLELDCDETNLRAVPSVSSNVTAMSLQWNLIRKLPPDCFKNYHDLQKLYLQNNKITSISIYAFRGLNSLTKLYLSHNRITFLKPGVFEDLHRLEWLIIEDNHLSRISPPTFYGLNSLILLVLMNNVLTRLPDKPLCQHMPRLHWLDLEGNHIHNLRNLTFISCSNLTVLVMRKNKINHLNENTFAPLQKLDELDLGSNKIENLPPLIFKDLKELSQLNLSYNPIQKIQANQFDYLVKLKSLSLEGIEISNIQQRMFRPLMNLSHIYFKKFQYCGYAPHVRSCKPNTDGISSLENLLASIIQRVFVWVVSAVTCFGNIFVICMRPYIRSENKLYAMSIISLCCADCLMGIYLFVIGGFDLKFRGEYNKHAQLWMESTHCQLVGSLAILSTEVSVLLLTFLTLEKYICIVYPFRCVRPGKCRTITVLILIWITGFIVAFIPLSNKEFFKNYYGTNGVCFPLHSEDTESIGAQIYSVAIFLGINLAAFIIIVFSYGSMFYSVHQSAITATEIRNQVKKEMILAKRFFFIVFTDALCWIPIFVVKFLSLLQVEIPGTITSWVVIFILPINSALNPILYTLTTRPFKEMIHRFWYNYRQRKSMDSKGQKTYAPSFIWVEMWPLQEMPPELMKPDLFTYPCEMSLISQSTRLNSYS", "assay": "cell-based or functional assay", "units": {"EC50 (nM), OVCAR 5 cells (cAMP)": "nM", "EMax, OVCAR 5 cells (cAMP)": "%"}, "values": [
      {"binder": "Ac-K(Ac)EGREKVRAK(Ac)I[Aib][Aib]EGK([TTDS-TTDS-TTDS-γGlu-γGlu-γGlu-Palmitoyl])STFS[αMeK]RAK(Ac)-NH2", "note": "[Relaxin peptide analogue of SEQ ID NO: 81]", "EC50 (nM), OVCAR 5 cells (cAMP)": 0.16, "EMax, OVCAR 5 cells (cAMP)": 98},
      {"binder": "Ac-[Aib]EGREKVRAK(Ac)I[Aib]IEGK([TTDS-TTDS-TTDS-γGlu-γGlu-γGlu-Palmitoyl])STFS[αMeK]RAK(Ac)-NH2", "note": "[Relaxin peptide analogue of SEQ ID NO: 86]", "EC50 (nM), OVCAR 5 cells (cAMP)": 0.3, "EMax, OVCAR 5 cells (cAMP)": 95},
      {"binder": "Ac-LEGREKVRAK(Ac)I[Aib][Aib]EGK([TTDS-TTDS-TTDS-γGlu-γGlu-γGlu-Palmitoyl])SKWS[Aib]RKK(Ac)-NH2", "note": "[Relaxin peptide analogue of SEQ ID NO: 83]", "EC50 (nM), OVCAR 5 cells (cAMP)": 0.25, "EMax, OVCAR 5 cells (cAMP)": 94},
      {"binder": "Ac-LEGRERVRAK(Ac)I[Aib][Aib]EGK([TTDS-TTDS-TTDS-γGlu-γGlu-γGlu-Palmitoyl])ST[Trp(5-Cl)]S[Aib]RRK(Ac)-NH2", "note": "[Relaxin peptide analogue of SEQ ID NO: 80]", "EC50 (nM), OVCAR 5 cells (cAMP)": 0.63, "EMax, OVCAR 5 cells (cAMP)": 93},
      {"binder": "Ac-LEGREKVRAK(Ac)I[Aib][Aib]EGK([AEEA-AEEA-AEEA-AEEA-γGlu-γGlu-γGlu-Palmitoyl])STFS[αMeK]RAK(Ac)-NH2 (SMILES CCCCCCCCCCCCCCCC(=O)N[C@@H](CCC(=O)N[C@@H](CCC(=O)N[C@@H](CCC(=O)NCCOCCOCC(=O)NCCOCCOCC(=O)NCCOCCOCC(=O)NCCOCCOCC(=O)NCCCC[C@H](NC(=O)CNC(=O)[C@H](CCC(=O)O)NC(=O)C(C)(C)NC(=O)C(C)(C)NC(=O)[C@@H](NC(=O)[C@H](CCCCNC(C)=O)NC(=O)[C@H](C)NC(=O)[C@H](CCCNC(=N)N)NC(=O)[C@@H](NC(=O)[C@H](CCCCN)NC(=O)[C@H](CCC(=O)O)NC(=O)[C@H](CCCNC(=N)N)NC(=O)CNC(=O)[C@H](CCC(=O)O)NC(=O)[C@H](CC(C)C)NC(C)=O)C(C)C)[C@@H](C)CC)C(=O)N[C@@H](CO)C(=O)N[C@H](C(=O)N[C@@H](Cc1ccccc1)C(=O)N[C@@H](CO)C(=O)N[C@@](C)(CCCCN)C(=O)N[C@@H](CCCNC(=N)N)C(=O)N[C@@H](C)C(=O)N[C@@H](CCCCNC(C)=O)C(N)=O)[C@@H](C)O)C(=O)O)C(=O)O)C(=O)O)", "note": "[Relaxin peptide analogue of SEQ ID NO: 8]", "EC50 (nM), OVCAR 5 cells (cAMP)": 1.86, "EMax, OVCAR 5 cells (cAMP)": 92},
      {"binder": "Ac-LEGREKVR[Aib]K(Ac)I[Aib][Aib]EGK([TTDS-TTDS-TTDS-γGlu-γGlu-γGlu-Palmitoyl])STWS[Aib]RAK(Ac)-NH2", "note": "[Relaxin peptide analogue of SEQ ID NO: 82]", "EC50 (nM), OVCAR 5 cells (cAMP)": 0.54, "EMax, OVCAR 5 cells (cAMP)": 95},
      {"binder": "Ac-LEGRERVR[Aib]K(Ac)I[Aib][Aib]EGK([TTDS-TTDS-TTDS-γGlu-γGlu-γGlu-Palmitoyl])STWS[Aib]RRK(Ac)-NH2", "note": "[Relaxin peptide analogue of SEQ ID NO: 85]", "EC50 (nM), OVCAR 5 cells (cAMP)": 0.3, "EMax, OVCAR 5 cells (cAMP)": 92},
      {"binder": "Ac-LEGREKVRAK(Ac)I[Aib]IEGK([TTDS-TTDS-TTDS-γGlu-γGlu-γGlu-Palmitoyl])STFS[αMeK]RAK(Ac)-NH2", "note": "[Relaxin peptide analogue of SEQ ID NO: 84]", "EC50 (nM), OVCAR 5 cells (cAMP)": 0.1, "EMax, OVCAR 5 cells (cAMP)": 95},
      {"binder": "Ac-LEGREKVRAK(Ac)I[Aib][Aib]EGK([TTDS-TTDS-TTDS-γGlu-γGlu-γGlu-Palmitoyl])STFSRRAK(Ac)-NH2", "note": "[Relaxin peptide analogue of SEQ ID NO: 87]", "EC50 (nM), OVCAR 5 cells (cAMP)": 0.1, "EMax, OVCAR 5 cells (cAMP)": 96}
    ]}
  ]
}
